From doi:10.1101/2023.02.25.530030

These substances were tested against human Mdm2 (1-125) (human) (assay: fluorescence polarisation).
human Mdm2 (1-125) (human), sequence (Q00987 1-125): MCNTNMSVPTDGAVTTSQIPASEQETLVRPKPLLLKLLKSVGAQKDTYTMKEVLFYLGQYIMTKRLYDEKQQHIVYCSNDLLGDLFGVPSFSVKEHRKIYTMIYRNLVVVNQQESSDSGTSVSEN

Going from “MP-444: Ac-K(N3)-TF(X)EYWAQ(Cba)(X)EAFAAF-NH2 (peptide)” to “MP-793 (all-D di-alkyne stapled analog of ^dPMI-δ(5-12 staple)) (peptide)”, the Kd falls from 1.5 nM to < 1 nM. The second binds more tightly here.

Going from “azide-ATSP-7041 (L1D, E5D, A8D) (peptide)” to “azide-ATSP-7041 (L1N, E5N, A8N, S12N, A13N, A14N) (peptide)”, the Kd rises from 5 nM to 15 nM (3-fold). The first binds more tightly here.

First: azide-ATSP-7041 (MP-081) (peptide)
Second: azide-ATSP-7041 (MP-081) E5P (peptide)
The Kd of the first is 1600-fold lower: 5 nM for the first, 7800 nM for the second.

First: azide-ATSP-7041 (MP-081) with Cba10 substituted with Ala (peptide)
Second: azide-ATSP-7041 (MP-081) with Cba10 substituted with Leu (peptide)
The Kd of the first is 2.1-fold higher: 115 nM for the first, 56 nM for the second.
